{
  "source": "patent US20060141546A1",
  "about": "“Bacterial test method by glycated label binding” (priority 2002, published 2006)",
  "key": {"[1]": {"system": "Staphylococcus aureus (Sf) strains # 3 and #6", "assay": "Bacteria assay by binding of intestinal ALP (Example 1, FIG. 8)", "conditions": "gram positive, strains # 3 and #6, FIG. 8", "description": "(§1) Bacterial cells ([…] to 10^8 cells/mL) were washed twice with water after centrifugation to separate the cells into a packed pellet from supernatant liquid. The washed cells in pellet form were suspended in 40 μL water and 10 μL of aqueous bovine intestinal alkaline phosphatase (ALP) was added (2 μg or […]). The mixture was left at room temperature for 30 minutes and then centrifuged, after which the bacterial pellets were washed with water 4-5 times (50 μL). All the washing supernatants were combined. A blank without cells was diluted in the same way. The final pellets were suspended in 50 μl water and both supernatants and cell suspensions were assayed for detection of ALP binding using 2.5 μl of 0.005 M para-nitrophenol phosphate (PNPP) in Tris or EPPS buffer at pH 7.5. The hydrolysis of the substrate results in yellow (PNPP) or blue-green (BCIP) color that is directly proportional to the amount of ALP bound to the bacteria. Alkaline phosphatase (ALP) activity was tested using common substrates such as BCIP (bromo-chloro-indolyl-phosphate) forming a blue/green color in Tris buffer, pH 7.5. After 10 minutes at room temperature the samples were read in a plate reader (Biotek Powerwave Absorbance Reader) at a wavelength of 405 nm. The parallel set of bacteria was run without addition of ALP as controls."}, "[2]": {"system": "Coagulase negative staphylococcus sp.", "assay": "ALP binding compared to Sf (Table 1)", "description": "as §1\n(§2) The bacteria used to illustrate the invention represent the extremes of gram positive (S. facaelis) and gram negative (E. coli) bacteria. […] The nature of the difference in the cell walls is greatest between the gram negative and positive forms of bacteria."}, "Enterococcus sp.": {"system": "Enterococcus sp.", "assay": "ALP binding compared to Sf (Table 1)", "description": "as §1, §2"}, "Group B streptococcus": {"system": "Group B streptococcus", "assay": "ALP binding compared to Sf (Table 1)", "description": "as §1, §2"}, "Lactobacillus": {"system": "Lactobacillus", "assay": "ALP binding compared to Sf (Table 1)", "description": "as §1, §2"}, "[3]": {"system": "Staphylococcus aureus & saprophyicus", "assay": "ALP binding compared to Sf (Table 1)", "description": "as §1, §2"}, "Streptococcus viridans": {"system": "Streptococcus viridans", "assay": "ALP binding compared to Sf (Table 1)", "description": "as §1, §2"}, "[4]": {"system": "Yeasts including Candida albicans", "assay": "ALP binding compared to Sf (Table 1)", "description": "as §1, §2"}, "Citrobacter freundii": {"system": "Citrobacter freundii", "assay": "ALP binding compared to E. coli (Table 1)", "description": "as §1, §2"}, "Citrobacter koseri": {"system": "Citrobacter koseri", "assay": "ALP binding compared to E. coli (Table 1)", "description": "as §1, §2"}, "Diphtheroids (gnb)": {"system": "Diphtheroids (gnb)", "assay": "ALP binding compared to E. coli (Table 1)", "description": "as §1, §2"}, "Klebsiella oxytoca": {"system": "Klebsiella oxytoca", "assay": "ALP binding compared to E. coli (Table 1)", "description": "as §1, §2"}, "Klebsiella pneumoniae": {"system": "Klebsiella pneumoniae", "assay": "ALP binding compared to E. coli (Table 1)", "description": "as §1, §2"}, "Morganella morganii": {"system": "Morganella morganii", "assay": "ALP binding compared to E. coli (Table 1)", "description": "as §1, §2"}, "Proteus mirabilis": {"system": "Proteus mirabilis", "assay": "ALP binding compared to E. coli (Table 1)", "description": "as §1, §2"}, "Pseudomonas aeruginosa": {"system": "Pseudomonas aeruginosa", "assay": "ALP binding compared to E. coli (Table 1)", "description": "as §1, §2"}},
  "data": [
    {"molecule": "ALP: bovine intestinal alkaline phosphatase, glycoprotein enzyme that binds bacteria and serves as label (protein, UniProt P19111 20-506, looked up) Intestinal-type alkaline …: LVPVEEEDPAFWNRQAAQALDVAKKLQPIQTAAKNVILFLGDGMGVPTVTATRILKGQMNGKLGPETPLAMDQFPYVALSKTYNVDRQVPDSAGTATAYLCGVKGNYRTIGVSAAARYNQCKTTRGNEVTSVMNRAKKAGKSVGVVTTTRVQHASPAGAYAHTVNRNWYSDADLPADAQMNGCQDIAAQLVNNMDIDVILGGGRKYMFPVGTPDPEYPDDASVNGVRKRKQNLVQAWQAKHQGAQYVWNRTALLQAADDSSVTHLMGLFEPADMKYNVQQDHTKDPTLQEMTEVALRVVSRNPRGFYLFVEGGRIDHGHHDDKAYMALTEAGMFDNAIAKANELTSELDTLILVTADHSHVFSFGGYTLRGTSIFGLAPSKALDSKSYTSILYGNGPGYALGGGSRPDVNDSTSEDPSYQQQAAVPQASETHGGEDVAVFARGPQAHLVHGVEEETFVAHIMAFAGCVEPYTDCNLPAPTTATSIPD", "values": [
      {"measurement": "ALP binding to bacteria (ALP activity of suspended cells after ALP treatment and washings)", "setting": "[1]", "result": "found to bind the ALP"},
      {"measurement": "ALP binding relative to sf.", "setting": "[2]", "result": 88, "unit": "%"},
      {"measurement": "ALP binding relative to sf.", "setting": "Enterococcus sp.", "result": 100, "unit": "%"},
      {"measurement": "ALP binding relative to sf.", "setting": "Group B streptococcus", "result": 96, "unit": "%"},
      {"measurement": "ALP binding relative to sf.", "setting": "Lactobacillus", "result": 100, "unit": "%"},
      {"measurement": "ALP binding relative to sf.", "setting": "[3]", "result": 100, "unit": "%"},
      {"measurement": "ALP binding relative to sf.", "setting": "Streptococcus viridans", "result": 102, "unit": "%"},
      {"measurement": "ALP binding relative to sf.", "setting": "[4]", "result": 93, "unit": "%"},
      {"measurement": "ALP binding relative to E. coli", "setting": "Citrobacter freundii", "result": 89, "unit": "%"},
      {"measurement": "ALP binding relative to E. coli", "setting": "Citrobacter koseri", "result": 93, "unit": "%"},
      {"measurement": "ALP binding relative to E. coli", "setting": "Diphtheroids (gnb)", "result": 91, "unit": "%"},
      {"measurement": "ALP binding relative to E. coli", "setting": "Klebsiella oxytoca", "result": 111, "unit": "%"},
      {"measurement": "ALP binding relative to E. coli", "setting": "Klebsiella pneumoniae", "result": 105, "unit": "%"},
      {"measurement": "ALP binding relative to E. coli", "setting": "Morganella morganii", "result": 95, "unit": "%"},
      {"measurement": "ALP binding relative to E. coli", "setting": "Proteus mirabilis", "result": 104, "unit": "%"},
      {"measurement": "ALP binding relative to E. coli", "setting": "Pseudomonas aeruginosa", "result": 99, "unit": "%"}
    ]}
  ]
}
